Patent US20090042869

Target: recombinant SF2/ASF (Protein One) (UniProt Q07955)
Sequence (Q07955 whole entry): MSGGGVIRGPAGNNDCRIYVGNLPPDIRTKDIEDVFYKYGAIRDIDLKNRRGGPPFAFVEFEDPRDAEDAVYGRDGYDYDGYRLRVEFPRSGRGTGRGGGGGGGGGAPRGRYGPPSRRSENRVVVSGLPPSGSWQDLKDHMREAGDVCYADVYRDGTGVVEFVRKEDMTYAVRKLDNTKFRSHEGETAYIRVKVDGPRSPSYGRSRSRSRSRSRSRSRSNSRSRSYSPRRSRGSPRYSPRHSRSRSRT

Sequence of Clk1 (Cdc2-like kinase), endogenous, from human platelets (chain, as listed by the source): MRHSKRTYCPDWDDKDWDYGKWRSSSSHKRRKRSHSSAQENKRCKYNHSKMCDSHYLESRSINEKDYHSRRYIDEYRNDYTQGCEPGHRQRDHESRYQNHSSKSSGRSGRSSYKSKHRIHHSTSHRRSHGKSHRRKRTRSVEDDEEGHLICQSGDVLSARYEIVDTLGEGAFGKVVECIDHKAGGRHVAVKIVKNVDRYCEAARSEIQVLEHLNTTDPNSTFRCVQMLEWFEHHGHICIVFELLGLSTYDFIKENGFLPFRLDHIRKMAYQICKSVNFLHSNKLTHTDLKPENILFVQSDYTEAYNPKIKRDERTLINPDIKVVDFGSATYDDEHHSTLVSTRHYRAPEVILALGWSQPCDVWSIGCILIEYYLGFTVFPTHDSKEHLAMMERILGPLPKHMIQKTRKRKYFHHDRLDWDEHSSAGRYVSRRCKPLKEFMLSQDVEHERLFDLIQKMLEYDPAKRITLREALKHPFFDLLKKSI

Clk1 (Cdc2-like kinase), endogenous, from human platelets
SF2/ASF phosphorylation (immune complex kinase assay): Clk1 from activated platelets (grown on immobilized fibrinogen in the presence of thrombin for 30 minutes) markedly increased SF2/ASF phosphorylation
